B1: YCR088W 471-484 (peptide)
chain: EIAPSLPSRNSIPA
B2: YDR443C 81-94 (peptide)
chain: EHKPVSPDKIGTFT
B3: YMR296C 278-291 (peptide)
chain: EKLPAIPRKFIVTE
B4: YPR171W 144-157 (peptide)
chain: EKGPRMPSRGRPRP
B5: YLR113W 212-225 (peptide)
chain: EGKPLFPGKDHVHQ
B6: YBR098W 51-64 (peptide)
chain: EMIPSSPQRKSVSN
B7: YDR080W 597-610 (peptide)
chain: EIAPLIPKKPALRK
B8: YGR166W 276-289 (peptide)
chain: ELDPISPLKVPLTA
B9: YER027C 53-66 (peptide)
chain: ELEPQHPLRHKSSL
B10: YIL156W 528-541 (peptide)
chain: EIPPPLPPKIMVHS
B11: YLR343W 379-392 (peptide)
chain: EKLPETPDRSKSAS
B12: YOR273C 415-428 (peptide)
chain: ELLPVVPEKFLIAS
B13: YBL007C 619-632 (peptide)
chain: ELPPIKPPRPTSTT
B14: YDR444W 379-392 (peptide)
chain: EILPQAPAKKVFES
B15: YKR024C 336-349 (peptide)
chain: EKFPKLPHKLVHML
B16: YNL025C 151-164 (peptide)
chain: EFIPPDPTKVTEFE
B17: YDR099W 164-177 (peptide)
chain: ELPPTHPIRLGLAL
B18: YJR110W 189-202 (peptide)
chain: EFSPTYPSKLFVPR
B19: YCL014W 808-821 (peptide)
chain: EILPVKPTKKSSKK

Target: T1, Boi1 SH3 (BOI1_YEAST), P38041
T1 chain: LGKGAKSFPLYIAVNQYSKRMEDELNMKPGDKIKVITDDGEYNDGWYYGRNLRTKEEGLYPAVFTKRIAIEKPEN
Assay: SPOT array

Row | Binder | normalised SPOT signal, Boehringer light units (BLU); mean over the file's lines of this peptide
1 | B1 | 92.9
2 | B2 | 58.8
3 | B3 | 26.8
4 | B4 | 394
5 | B5 | 89.1
6 | B6 | 59
7 | B7 | 110
8 | B8 | 56.8
9 | B9 | 65.2
10 | B10 | 121
11 | B11 | 69.3
12 | B12 | 90.2
13 | B13 | 54.9
14 | B14 | 34.7
15 | B15 | 56.5
16 | B16 | 98
17 | B17 | 77.1
18 | B18 | 53.2
19 | B19 | 364

Target: T2, Boi2 SH3 (BOI2_YEAST), P39969
T2 chain: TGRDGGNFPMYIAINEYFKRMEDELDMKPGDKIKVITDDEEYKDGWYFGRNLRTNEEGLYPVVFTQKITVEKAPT
Assay: SPOT array

Row | Binder | normalised SPOT signal, Boehringer light units (BLU); mean over the file's lines of this peptide
20 | B1 | 51.6
21 | B2 | 21.4
22 | B3 | 17.5
23 | B4 | 161
24 | B5 | 11
25 | B6 | 37.3
26 | B7 | 90.8
27 | B8 | 46
28 | B9 | 60
29 | B10 | 15.5
30 | B11 | 69.2
31 | B12 | 13.5
32 | B13 | 90.2
33 | B14 | 21.5
34 | B15 | 83.5
35 | B16 | 39.5
36 | B17 | 46.1
37 | B18 | 33.3
38 | B19 | 21.3

Target: T3, Rvs167 SH3 (RV167_YEAST), P39743
T3 chain: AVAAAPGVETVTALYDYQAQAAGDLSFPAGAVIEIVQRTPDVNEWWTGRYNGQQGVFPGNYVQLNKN
Assay: SPOT array

Row | Binder | normalised SPOT signal, Boehringer light units (BLU); mean over the file's lines of this peptide
39 | B1 | 18700
40 | B2 | 59.1
41 | B3 | 41.4
42 | B4 | 72.6
43 | B5 | 38.5
44 | B6 | 220
45 | B7 | 80
46 | B8 | 39.4
47 | B9 | 38.4
48 | B10 | 135
49 | B11 | 67.1
50 | B12 | 15.1
51 | B13 | 1900
52 | B14 | 65.2
53 | B15 | 32.9
54 | B16 | 16.4
55 | B17 | 24.8
56 | B18 | 69.9
57 | B19 | 63.9

Target: T4, Yfr024 SH3 (LSB3_YEAST), P43603
T4 chain: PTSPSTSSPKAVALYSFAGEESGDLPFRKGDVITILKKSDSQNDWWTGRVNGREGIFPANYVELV
Assay: SPOT array

Row | Binder | normalised SPOT signal, Boehringer light units (BLU); mean over the file's lines of this peptide
58 | B1 | 35400
59 | B2 | 60.4
60 | B3 | 667
61 | B4 | 5120
62 | B5 | 5.2
63 | B6 | 2140
64 | B7 | 5120
65 | B8 | 42.4
66 | B9 | 109
67 | B10 | 41400
68 | B11 | 12200
69 | B12 | 13.7
70 | B13 | 57000
71 | B14 | 244
72 | B15 | 7910
73 | B16 | 26.8
74 | B17 | 179
75 | B18 | 796
76 | B19 | 2720

Target: T5, Yhr016c SH3 (YSC84_YEAST), P32793
T5 chain: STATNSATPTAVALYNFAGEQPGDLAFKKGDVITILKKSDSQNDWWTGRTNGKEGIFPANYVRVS
Assay: SPOT array

Row | Binder | normalised SPOT signal, Boehringer light units (BLU); mean over the file's lines of this peptide
77 | B1 | 40900
78 | B2 | 181
79 | B3 | 208
80 | B4 | 1840
81 | B5 | 91.1
82 | B6 | 323
83 | B7 | 0
84 | B8 | 160
85 | B9 | 333
86 | B10 | 14500
87 | B11 | 5560
88 | B12 | 149
89 | B13 | 43100
90 | B14 | 12.5
91 | B15 | 139
92 | B16 | 53.3
93 | B17 | 203
94 | B18 | 143
95 | B19 | 34.7

— paper PMC314469, “Protein Interaction Networks by Proteome Peptide Scanning” (PLoS Biology, 2004)
